“Also recorded” adds a separate entry of the source.
What was measured:
[1] = Vasculotide-specific ELISA of circulating Vasculotide in mouse plasma; format: in vivo, CD1 mice; details: for circulating level in plasma after oral delivery: 2 μg P.O. (gavage)
Source text: Several monoclonal antibodies have been raised against the modified T7 peptide. These antibodies have been extensively validated and used to develop an ELISA which is capable of measuring picogram quantities of Vasculotide in mouse plasma or serum. There is an excellent linear relationship between ELISA signal and Vasculotide concentration with little interference from mouse plasma/serum proteins (FIG. 1C).
The developed ELISA was used to track circulating levels of Vasculotide in the plasma of mice over time. […] The incongruence of these findings is likely due to a paucity of sensitivity in the ELISA-based detection of Vasculotide.

CFU-G = assay: Methocult colony assay (ex vivo bone marrow proliferation and differentiation); format: cell-based, CD1 mice; details: 1 ng/ml or 10 ng/ml, Methocult M3434, 7 days
Experimental: Bone marrow was flushed from the femur bones of two month old CD1 mice and was suspended in Iscove's Modified Dulbecco's Media (Sigma, St. Louis, Mo.) at a concentration of 1×10^5 per ml. Cells were thoroughly suspended in methocellulose M3434 media (Stem Cell Technologies, Vancouver, BC) such that 1×10^4 cells per 35 mm tissue culture dish were dispensed. Prior to dispensing into the tissue culture dishes either vehicle (PBS) or Vasculotide 1 ng/ml or 10 ng/ml was mixed in. Plates were placed in an incubator at 37° C., 5% CO2 for 7 days without replenishment of vehicle or Vasculotide. […] Using an ex vivo model of bone marrow proliferation and differentiation (methocult), the influence of Vasculotide on bone marrow extracted from the femurs of normal CD1 mice was observed. Bone marrow was disaggregated and resuspended in methocult M3434 media plus Vasculotide (Vasc 1 ng/ml or 10 ng/ml) or control (PBS).

Eo/B progenitors = assay: Modulation of eosinophil/basophil progenitors (Eo/B-CFU); format: cell-based; details: preliminary data
Experimental: Thus, Eo/B from mice and healthy donors are isolated. Eosinophils from the periphery or bone marrow are enriched by magnetic bead sorting using anti CD125 (IL-5Ra) conjugated to magnetic particles. These cells preparations are stimulated with either recombinant Ang1 or Vasculotide and different cellular parameters are measured, including cellular growth, apoptosis, migration and Tie2-specific cellular signaling.
To examine the effect of Vasculotide on Eo/B progenitors, bone marrow colony assays are performed. Human bone marrow preparations are purchased from Stem Cell Technologies (Vancouver, BC) and murine bone marrow are obtained by flushing femurs of normal mice. Non-adherent mononuclear cells are cultured in MethoCult supplemented with IL-5 to optimize for eosinophil/basophil colony formation (Eo/B-CFU). […] The appearance of Eo/B-CFU is measured.
Eo/Bs and their progenitors are harvested from Vasculotide treated asthmatic animals from the periphery or bone marrow. In order to establish an Eo/B cellular profile treated and non-treated animals are harvested on week 1, 2, 4 and 6 and the number of Eo/Bs in the periphery, bone marrow and progenitors is determined. The number of peripheral and bone marrow eosinophils is determined by flow cytometry analysis using Ly6G, CD11b, IgE and free FITC markers. Eo/B progenitors in the bone marrow are measured by Eo/B-CFU assay.

In the case of “Vasculotide: Modified T7 peptide (CHHHRHSF, SEQ ID NO:2) conjugated to 10 kDa tetrameric polyethylene glycol-maleimide; Tie2 binding peptide mimetic”, the “time up to which significant levels of circulating Vasculotide are detected by ELISA” value ([1]; 2 μg I.P., p=0.0149 PBS vs Vasc) is reported as “up to 24 hours”, the “circulating level in plasma after oral delivery” value [1] is reported as “no significant levels” and the “circulating level in plasma after oral delivery” value ([1]; listed as Vasc-PEG) is reported as “did not result in any detectable levels”. For the same substance, the “circulating level in plasma at 24 hours post injection” value ([1]; I.P., unpaired student t-test vs PBS) was “statistically detectable level”, the “all other populations of cells (colonies)” value (CFU-G) was “statistically indistinguishable from PBS control” and the “total CFU-G numbers” value (CFU-G; vs PBS) was “statistically significant, dose-dependent reduction; also recorded: dose dependent, statistically significant reduction”. For the same substance, the “effect on Eo/B progenitors” value (Eo/B progenitors) was “impacts the Eo/B progenitors directly”.

— patent US9186390B2, “Methods and uses of TIE2 binding and/or activating agents” (Sunnybrook Health Sciences Center, priority 2010, dated 2015)
